The subject of the series is CPFX-treated juvenile rats. The settings on record: rat, in vivo.

Protocol: Thus, the effect of the TβII-SE isoform was analyzed either in CPFX-treated juvenile rats (24 days old) or untreated rats, by intra-articular injections of lentiviral vectors encoding a recombinant protein of the codon-optimized (co) TβRII-SE fused to the constant fragment (Fc) of the human immunoglobulin 1 (IgG1) (Lt.coTβRII-SE/Fc) or the enhanced green fluorescent protein (Lt.eGFP).
Male 24-day-old Wistar rats were housed under controlled conditions at 21±1° C. with 50%±5% relative humidity and a constant light-dark schedule (light, 8 a.m. to 8 p.m.). Food and tap water was provided ad libitum. The rats received ciprofloxacin hydrochloride on day 24 by oral administration of 200 mg/kg of body weight during 10 days. The animals were examined for clinical abnormalities including motility alterations and weighted during the treatment period.
On day 14 after ciprofloxacin treatment, 50 μl viral vectors were injected intra-articularly with either Lt.coTBRII-SE/Fc (2.35×10^6 transducing Units, TU) or Lt.eGFP (6×10^6 TU). Control animals without ciprofloxacin were treated in the same manner.

Consider “coTβRII-SE/Fc: fusion peptide of codon-optimized TβRII-SE and the human IgG1 Fc region, SEQ ID No. 6”, for which the “X-ray images of knees” value was “radiolucent images with irregular borders in the femoral condyle”.

Values taken from patent US11072647B2, “TGF-receptor II isoform, fusion peptide, methods of treatment and methods in vitro” (Onsejo Nacional DE Investigation Cientiticay Tecnica, priority 2013, dated 2021).
